Source: patent US20140271457A1 (AbbVie / Abbott, published 2014)
Where a chain is given by its changes, count along the chain named.

B1: DVD3113 (bispecific antibody)
heavy: not shown
light: DIQMTQSPSSLSASVGDRVTITCRASQDIENYLNWYQQKPGKAPKLLIYYTSRLQSGVPSRFSGSGSGTDFTLTISSLQPEDFATYFCQQGNTQPPTFGQGTKLEIKRGGSGGGGSGDVVMTQSPLSLPVTLGQPASISCRSSQSLVHSHGNTYLHWYQQRPGQSPRLLIYTVSNRFSGVPDRFSGSGSGTDFTLKISRVEAEDVGVYYCSQSTHVPYTFGGGTKVEIKRTVAAPSVFIFPPSDEQLKSGTASVVCLLNNFYPREAKVQWKVDNALQSGNSQESVTEQDSKDSTYSLSSTLTLSKADYEKHKVYACEVTHQGLSSPVTKSFNRGEC
B2: DVD3103 (bispecific antibody, human IgG1, kappa)
heavy: not shown
light: DIQMTQSPSSLSASVGDRVTITCRASQDISQYLNWYQQKPGKAPKLLIYYTSRLQSGVPSRFSGSGSGTDFTLTISSLQPEDFATYFCQQGNTWPPTFGQGTKLEIKRGGSGGGGSGDIQMTQSPSSLSASVGDRVTITCRASQLVSSAVAWYQQKPGKAPKLLIYWASARHTGVPSRFSGSGSGTDFTLTISSLQPEDFATYYCQQHYKTPFTFGQGTKLEIKRTVAAPSVFIFPPSDEQLKSGTASVVCLLNNFYPREAKVQWKVDNALQSGNSQESVTEQDSKDSTYSLSSTLTLSKADYEKHKVYACEVTHQGLSSPVTKSFNRGEC
B3: DVD3107 (bispecific antibody)
heavy: not shown
light: DIQMTQSPSSLSASVGDRVTITCRASQDISQYLNWYQQKPGKAPKLLIYYTSRLQSGVPSRFSGSGSGTDFTLTISSLQPEDFATYFCQQGNTWPPTFGQGTKLEIKRTVAAPDVVMTQSPLSLPVTLGQPASISCRSSQSLVHSHGNTYLHWYQQRPGQSPRLLIYTVSNRFSGVPDRFSGSGSGTDFTLKISRVEAEDVGVYYCSQSTHVPYTFGGGTKVEIKRTVAAPSVFIFPPSDEQLKSGTASVVCLLNNFYPREAKVQWKVDNALQSGNSQESVTEQDSKDSTYSLSSTLTLSKADYEKHKVYACEVTHQGLSSPVTKSFNRGEC
B4: DVD3114 (bispecific antibody)
heavy: not shown
light: B3 light with S30E, Q31N, W94Q
B5: DVD3111 (bispecific antibody, human IgG1, kappa)
heavy: not shown
light: DVVMTQSPLSLPVTLGQPASISCRSSQSLVHSHGNTYLHWYQQRPGQSPRLLIYTVSNRFSGVPDRFSGSGSGTDFTLKISRVEAEDVGVYYCSQSTHVPYTFGGGTKVEIKRTVAAPSVFIFPPDIQMTQSPSSLSASVGDRVTITCRASQDISQYLNWYQQKPGKAPKLLIYYTSRLQSGVPSRFSGSGSGTDFTLTISSLQPEDFATYFCQQGNTWPPTFGQGTKLEIKRTVAAPSVFIFPPSDEQLKSGTASVVCLLNNFYPREAKVQWKVDNALQSGNSQESVTEQDSKDSTYSLSSTLTLSKADYEKHKVYACEVTHQGLSSPVTKSFNRGEC
B6: DVD3104 (bispecific antibody, human IgG1, kappa)
heavy: not shown
light: DIQMTQSPSSLSASVGDRVTITCRASQDISQYLNWYQQKPGKAPKLLIYYTSRLQSGVPSRFSGSGSGTDFTLTISSLQPEDFATYFCQQGNTWPPTFGQGTKLEIKRTVAAPDIQMTQSPSSLSASVGDRVTITCRASQLVSSAVAWYQQKPGKAPKLLIYWASARHTGVPSRFSGSGSGTDFTLTISSLQPEDFATYYCQQHYKTPFTFGQGTKLEIKRTVAAPSVFIFPPSDEQLKSGTASVVCLLNNFYPREAKVQWKVDNALQSGNSQESVTEQDSKDSTYSLSSTLTLSKADYEKHKVYACEVTHQGLSSPVTKSFNRGEC
B7: DVD3117 (bispecific antibody, human IgG1, kappa)
heavy: not shown
light: B6 light with S30E, Q31N, W94Q
B8: DVD3106 (bispecific antibody)
heavy: not shown
light: DIQMTQSPSSLSASVGDRVTITCRASQDISQYLNWYQQKPGKAPKLLIYYTSRLQSGVPSRFSGSGSGTDFTLTISSLQPEDFATYFCQQGNTWPPTFGQGTKLEIKRTVAAPSVFIFPPDVVMTQSPLSLPVTLGQPASISCRSSQSLVHSHGNTYLHWYQQRPGQSPRLLIYTVSNRFSGVPDRFSGSGSGTDFTLKISRVEAEDVGVYYCSQSTHVPYTFGGGTKVEIKRTVAAPSVFIFPPSDEQLKSGTASVVCLLNNFYPREAKVQWKVDNALQSGNSQESVTEQDSKDSTYSLSSTLTLSKADYEKHKVYACEVTHQGLSSPVTKSFNRGEC
B9: DVD3116 (bispecific antibody)
heavy: not shown
light: B8 light with S30E, Q31N, W94Q
B10: DVD3109 (bispecific antibody, human IgG1, kappa)
heavy: not shown
light: DVVMTQSPLSLPVTLGQPASISCRSSQSLVHSHGNTYLHWYQQRPGQSPRLLIYTVSNRFSGVPDRFSGSGSGTDFTLKISRVEAEDVGVYYCSQSTHVPYTFGGGTKVEIKRTVAAPDIQMTQSPSSLSASVGDRVTITCRASQDISQYLNWYQQKPGKAPKLLIYYTSRLQSGVPSRFSGSGSGTDFTLTISSLQPEDFATYFCQQGNTWPPTFGQGTKLEIKRTVAAPSVFIFPPSDEQLKSGTASVVCLLNNFYPREAKVQWKVDNALQSGNSQESVTEQDSKDSTYSLSSTLTLSKADYEKHKVYACEVTHQGLSSPVTKSFNRGEC
B11: DVD3112 (bispecific antibody, human IgG1, kappa)
heavy: not shown
light: B10 light
B12: DVD3118 (bispecific antibody, human IgG1, kappa)
heavy: not shown
light: DVVMTQSPLSLPVTLGQPASISCRSSQSLVHSHGNTYLHWYQQRPGQSPRLLIYTVSNRFSGVPDRFSGSGSGTDFTLKISRVEAEDVGVYYCSQSTHVPYTFGGGTKVEIKRGGSGGGGSGDIQMTQSPSSLSASVGDRVTITCRASQDIENYLNWYQQKPGKAPKLLIYYTSRLQSGVPSRFSGSGSGTDFTLTISSLQPEDFATYFCQQGNTQPPTFGQGTKLEIKRTVAAPSVFIFPPSDEQLKSGTASVVCLLNNFYPREAKVQWKVDNALQSGNSQESVTEQDSKDSTYSLSSTLTLSKADYEKHKVYACEVTHQGLSSPVTKSFNRGEC

Target: Recombinant Human IL-13 (human, UniProt P35225 35-146, limits assumed)
Assay: cell-based or functional assay

Recombinant Human IL-13, sequence (P35225 35-146 limits assumed): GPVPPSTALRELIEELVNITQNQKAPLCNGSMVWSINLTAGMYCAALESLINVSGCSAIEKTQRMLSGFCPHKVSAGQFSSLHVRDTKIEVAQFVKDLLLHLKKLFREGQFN

IL-13 Neutralization Assay IC50 [nM]	Binder
0.065	B1
0.042	B2
0.029	B3
0.781	B4
0.018	B5
1.05	B6
0.015	B7
0.074	B8
0.081	B9
0.044	B10
0.017	B11
0.013	B12
